Experimental data reported in US9951359B2, “Heat-stable, FE-dependent alcohol dehydrogenase for aldehyde detoxification” (UT-BATTELLE, LLC, priority 2013, dated 2018).
Like-named read-outs stand apart in the source and are kept apart here.

B1: BdhA: heat-stable, NADPH- and iron-dependent alcohol dehydrogenase cloned from Thermoanaerobacter pseudethanolicus 39E (SEQ ID NO: 2) (protein, listed as Thermoanaerobacter pseudethanolicus)
chain: MMKFEFYNPTRLIFGAGSLGQLGKVVNQYGKKALLVIGGGSVKKSGAFDRAVASLKAAGVLVVEFSGVEPNPRLSTVVRASELAKKEACDVVIGMGGGSVMDASKVIAASVLYEGDPKDMLVRAGKAPRLPERALPIITVPTLAATGSEMNNGAVITIDDEGEKLKTFVQAEVLYPRVAVVDPELTMTVPKNHTAFGVCDIITHVTEGYFNGIDGTPLQDRFAEGVILTVLEWGPKAVSDGSDLEARTQVQWASIVALNGWVQVGTNGAYPVHMIEHTLSALYDIPHGAGLAVVNPAWMRFAARFRPERFAQFAQRIFGLTATGKDTLSLAMEGIDKFEEFLRSIGCPTRLSELGIGEITEEMLFRYAEETLKVLQDEEGRLPGRPSLRKEDIVEILRMAM

Experiments:
[1] = system: Thermoanaerobacter pseudethanolicus 39E (Teth39E); experiment: Growth of Teth39E with furan aldehydes (optical density at 600 nm); assay type: cell-based; conditions: for specific growth rate: 65° C.; for IC50: Thermoanaerobacter pseudethanolicus, read-out: furan aldehyde concentration which resulted in 50% inhibition of growth (IC50)
Method: Teth39E (DSMZ 2355) was purchased from Deutsche Sammlung von Mikroorganismen and Zellkulturen GmbH (DSMZ). Anaerobic growth medium was prepared anaerobically by a modified Hungate technique and consisted of 4.5 mM KCl, 4.7 mM NH4Cl, 2.5 mM MgSO4.7H2O, 1.0 mM NaCl, 0.7 mM CaCl2.2H2O, […] resazurin, 2.8 mM cysteine-HCl, 6.0 mM NaHCO3, 1 mM potassium phosphate buffer (pH 6.8), 10 mM 3-(N-morpholino)-propanesulfonic acid (pH 6.8), 1× Wolfe's trace minerals, 1× Wolfe's vitamin supplement, 0.1% (w/v) yeast extract, and 40 mM glucose [Miller and Wolin (1974) Appl. Microbiol. 27:985-987; Wolin et al. (1963) J. Biol. Chem. 238:2882-2886]. Furan aldehydes were added from degassed concentrated stock solutions. Cultures were grown at 65° C. from a 1% inoculum in Balch tubes (10 mL) or 125 mL serum bottles (50 mL) Cell growth was monitored by optical density at 600 nm, either directly in the Balch tube using a Spectronic 200 spectrophotometer (Thermo Fisher Scientific, Waltham, Mass.) or as 200 μL samples transferred to a 96-well plate and read on a Synergy Mx plate reader (BioTek, Winooski, Vt.). All growth experiments were performed in triplicate.
Lower concentrations of furfural (10 and 20 mM) and 5-hydroxymethylfurfural (10 mM) stimulated growth of Teth39E, with increased cell yields after 12 h for both (see FIGS. 1A and 1B). […] The IC50 for 5-HMF was between 20 and 30 mM after both 12 and 24 h.

[2] = system: protein encoded by the Teth39_1597 locus (bdhA); experiment: Proteome comparison of Teth39E grown in the presence or absence of furfural; assay type: cell-based, Thermoanaerobacter pseudethanolicus 39E; conditions: Teth39E grown in the presence of 15 mM furfural
Method: To identify the enzymes responsible for furfural and 5-HMF conversion, the proteomes were compared for strain Teth39E grown in the presence or absence of 15 mM furfural.

[3] = system: BdhA (Teth39_1597); experiment: Aldehyde reductase enzyme assay with whole cell lysates of E. coli overexpressing BdhA (NAD(P)H oxidation at 340 nm); assay type: biochemical, Thermoanaerobacter pseudethanolicus 39E; conditions: for specific activity with NADPH as a cofactor / BdhA Aldehyde Activities (specific activity): whole cell lysate; for BdhA Aldehyde Activities (specific activity): 60° C.; for BdhA Aldehyde Activities (specific activity) / Specific activity: aerobic
Method: Teth39E genomic DNA was isolated using the Wizard Genomic DNA Purification kit (Promega, Madison, Wis.). The bdha gene was PCR amplified using Phusion polymerase (New England Biolabs, Ipswich, Mass.) and cloned into pET30a (EMD Millipore, Billerica, Mass.) behind 6× His- and S-tags. Expression plasmids were transformed in BL21 (DE3) E. coli according to the manufacturer's protocol (Invitrogen, Grand Island, N.Y.). Cells were grown in 50 mL 2×YT medium at 37° C. to OD600 of 0.8-1.0, then induced with 100 μM isopropyl-β-D-thiogalactopyranoside and switched to 30° C. for 16 h. Cells were harvested at 4° C. (3,000×g, 30 min), washed in 50 mL 100 mM sodium phosphate buffer, pH 7 (buffer A), and re-suspended in 5 mL buffer A. Enzyme assays were performed aerobically at 60° C. with whole cell lysates and specific activity was determined by measuring the change in absorbance at 340 nm due to oxidation of NADPH or NADH.
Cell suspension (450 μL) was added to 0.1 mm zirconia beads (300 μL) and vortexed 4×60 sec with 30 sec on ice in between. Samples were centrifuged (14,000×g, 2 min) and the resulting supernatant was used for enzyme assays.
For the enzyme assays, Buffer A (1 mL), 10 mM NAD(P)H (25 μL), and 400 mM aldehyde (50 μL) were added to a 2 mL quartz cuvette, sealed with a butyl stopper, and equilibrated to 60° C. Assays were read at 340 nm (DU 800) for 150 sec to establish a baseline slope before whole cell lysate was added (1-5 μL). Cuvettes were inverted once to mix and read an additional 450 sec. The decrease in absorbance over time was calculated and the baseline slope was subtracted. NAD(P)H concentration was determined using the extinction coefficient (NADH: 6220 M^−1 cm ^−1, NADPH: 6270 M^−1 cm^−1) and specific activity was calculated as the change in μmoles NAD(P)H/min/mg of whole cell lysate protein. Protein concentration was determined using the Bradford assay (Bio-Rad, Hercules, Calif.) with bovine serum albumin as a standard. Specific activity was measured for the pET30a vector (control) and overexpressed Teth39_1597 (BdhA) with acetaldehyde, butyraldehyde, isobutyraldhyde, furfural, and 5-HMF. Furfural was also assayed under anaerobic conditions. BdhA activity was compared to the vector-only control.

[4] = system: BdhA (Teth39_1597); experiment: Optimal temperature and pH of purified BdhA enzyme (butyraldehyde, NADPH); assay type: biochemical, Thermoanaerobacter pseudethanolicus 39E
Method: The optimal temperature for BdhA activity was determined from purified enzyme as follows. A 1 liter culture of E. coli BL21 (DE3) harboring the pET30a-BdhA expression construct (see FIG. 6A) was grown to mid-log phase and induced with 0.4 mM IPTG and allowed to incubate for 16 h at 30° C. with shaking at 250 rpm. The induced cells were harvested via centrifugation at 5,000×g for 20 min at 4° C. and washed 3 times with 40 mL ice-cold phosphate buffered saline (PBS) at pH 7.2 and placed on ice. The cell pellet was resuspended in binding buffer (20 mM sodium phosphate, 500 mM NaCl, 20-40 mM imidazole, pH 7.4) containing 0.2 mg/mL lysozyme, 20 μg/mL DNAse, 1 mM MgCl2, 1 mM PMSF and stirred for 30 min at room temperature. The cells were then subjected to 5×2 min rounds of sonication (Branson Sonifier 450 with microtip, duty cycle at 30%) while kept in an ice water bath. The lysate was centrifuged at 7,500×g for 20 min at 4° C. and the supernatant was transferred to a new 50 mL conical tube. […] For determining the optimal temperature for BdhA, 1 mL assays containing 100 mM phosphate buffer (pH 7.5), 20 mM butyraldehyde, and 0.25 mM NADPH were monitored for loss of absorbance at 340 nm for 20 seconds at 30-90° C. in 5° C. intervals. […]
The optimum pH was also determined for BdhA by using butyraldehyde as the substrate and NADPH as the cofactor. […]

Molecule | specific growth rate ([1]; 10 mM furan aldehyde) [h⁻¹] | IC50 ([1]; after 12 h) [mM] | IC50 ([1]; after 24 h) [mM] | specific growth rate ([1]; 20 mM furan aldehyde) [h⁻¹] | expression of Teth39_1597 protein upregulated [2] | activity above the vector control using NADH as the cofactor ([3]; NADH as cofactor) | specific activity with NADPH as a cofactor ([3]; butyraldehyde as substrate) | activity against butyraldehyde ([3]; butyraldehyde, NADPH) | specific activity with NADPH as a cofactor ([3]; expressed in E. coli, various aldehydes) | BdhA Aldehyde Activities (specific activity) ([3]; substrate 5-HMF, NADPH) | BdhA Aldehyde Activities (specific activity) ([3]; substrate acetaldehyde, NADPH) | BdhA Aldehyde Activities (specific activity) ([3]; substrate butyraldehyde, NADPH) | BdhA Aldehyde Activities (specific activity) ([3]; substrate furfural, NADPH) | BdhA Aldehyde Activities (specific activity) ([3]; substrate isobutyraldehyde, NADPH) | Specific activity ([3]; with 5-HMF, NADPH) [U] | Specific activity ([3]; with furfural, NADPH) [U] | optimal temperature for BdhA activity ([4]; 20 mM butyraldehyde, 0.25 mM NADPH, pH 7.5, 30-90° C.) [°C] | optimum pH (optimal relative activity) ([4]; butyraldehyde, NADPH, buffers pH 4-10) [pH units]
O=Cc1ccc(CO)o1 [5-HMF, 5-hydroxymethyl furfural] | 0.51 ± 0.03 | 20 to 30 | 20 to 30 |  |  |  |  |  |  |  |  |  |  |  |  |  |  | 
O=Cc1ccco1 [furfural] | 0.52 ± 0.03 | 30 | 30 to 40 | 0.43 ± 0.03 | approximately 7 fold |  |  |  |  |  |  |  |  |  |  |  |  | 
B1 |  |  |  |  |  | No activity was detected | at least 14 μmole/min/mg | approximately 14.58±3.57 μmoles/min/mg | at least 0.5 μmole/min/mg | 10.06 ± 0.80 | 4.54 ± 0.76 | 14.58 ± 3.57 | 4.97 ± 0.17 | 0.63 ± 0.29 | 10.06±0.80 | 4.97±0.17 | 75 | 8.0
